Test results taken from a protein production outcome set (Wang et al. 2014).

experiment: label from the status in PepcDB records

For “MNEADMLFSVTVPGSTANLGPGFDSVGMALSRYLKLTVFESDKWSFEAETETVAGIPAGTDNLIYQVAKRTADLYGKEMPPVHVKVWSDIPLARGLGSSAAAIVAAIELADELCGLKLSEADKLHLASLEEGHPDNAGASLVGGLVIGLHEDDETQMIRVPNADIDVVVVIPFYEVLTRDARDVLPKEFPYADAVKASAVSNILIAAIMSKDWPLVGKIMKKDMFHQPYRAMLVPELSKVEHVAEMKGAYGTALSGAGPTILVMTEKGKGEELKEQLALHFPHCEVDALTVPKEGSIIERNPLYQVKSV”, which protein production is on record?
Its protein production is “not failed”.

For “MNEDALTFLSRQHPYDELPAGVLNDVAAQVEKLSVAEGEMIYAYGEPLEGLYIIQSGLVDVRDQSDTQVSMLERGNSFGERGLLADGNAVTSARAVRDTLLIRVPVSLFNTLRTEQSPFQRFFARSSARPDKSATQQTSLAQVSVDALMVRNPVTCTPGTSVVDAAVLMTSRRISCLCITEEDRLTGIVTLRDLVGKALAAGLPPQTPLSDIIQNEPVSLPPTAIGSDVLHMMMEYNLGHLPIVDAGKLVGIVTQTDLTRYQATTAAGLVADAARAQSVEALADITGRIPALLVQLVAAGNRHDVVTRMITDIADVVTRRLLNMAEEKLGPAPLRYLWLACGSQGRQEQTGVSDQDNCLILEDGASRDDIAYFHEMATFVSDGLNACGYVYCPGDMMATNPRWCQPLSVWKEYFNGWIKSPSKEAQMLASVMFDLRPIGGDASLFHGMQQATLEKAAKNSIFTAHMASNSLTHQTPLGLLRGLATISSGDHRKTIDTKLNGVVPVVDLGRMYALQGKLTVANTRARLIAALNNKTISAKGGRDLLEAYDLVAQTRLEHQARLIKEGKAPDNYLPPARLSDFERSHLRDAFVVIKTMQSALMQGRGILG”, which protein production is on record?
Its protein production is “failed”.

Which protein production does the source give for “MNEELIKEKNFSDSVLSSYRMSLDHKKLQNKMIDNMLFRDISGGKKRTFVEEVEDNEEKNNKSAQKCIDGNDKNFIESRKKALENFQQNENNYDCTYKTIKKKNISGCNTTTKLKDVNSSEECQLCLMPNSDSLHGNFPPTFYKLTCDHIFHLMCLYETVIRRECRKTCCICHNELSENDKNEIINKVKLEKKENEKKSKLLFKVMKLQAENKDYPRKDICS” here?
Its protein production is “failed”.

Which protein production does the source give for “MNEFETLLNSVEDVKVRDVVKGEILSVENGQATVAIVGTGVEGVLTLREITNDKDADINTFVKPGDVLDLLVIKQIVGKEAEGANVYLLSLKRLEARKAWTQLEGKEGEIVTVKVTKDVKGGLSVDYNGVRGFIPASMIDTYFVKDTKKFVGEEIEAKIIEVNASENRFILSRRAVVEAEAIEMRKEAFAQLQEGDIVEGTVSRVTNFGAFVDLGGIDGLVHVSELSHSRIKRPSDAVKPGDVVNVKILKLDPEAGRLSLSLKATQPGPWEQVEEKAPVGSTVEGTVKRLTDFGAFVELYPGVEGLVHVSQISWERVENPKDVLKVGQVVNVKVLDVKPAEERISLSIKALEEAPARPARNNDNDGEKRDRKPRAPRKAAKPSYDLPETQEGFSLADFLGEDFDINDLLEHHHHHH” here?
The protein production was “not failed”.

With “MNEIFGIDLGTTYSCISYVDEYGRPVVVPNAENERITPSVVFFDGDNVIVGDVAKENSKMYPEDVVSFVKRSMGDENFYFEHGGKNYHAEEISSFILRKLISDAENNLGQKINDVVITCPAYFGINEREATKLAGEIAGLNVKAIINEPTAAAVAYGVDYDKDKVVLVYDLGGGTFDVTMIDVKKDSIKVICTGGDHNLGGKDWDDALIAYMAEQYKEITGNDKDILEDPETCQELQLLAERVKKTLSQREKAPISINYEGERAKIEITRQKFNELTYDLLQRTVNLMDDMLKEAAKKNYTSFDEILLVGGSSRMPQVEEIIKNKYNIEPKVFDPDEAVSKGAALYGWKLSVNDELVRRISEETGKDIEDIKKSIDEKSIDENVVEAAAKRVADDTGYTLSAVKASNVKVVNVVSKSFGVVTYNNEEKEVVYNLIIKNSEVPYEFTERFGTREENQENVMIKIVEDELSDKIVDIAYGNEIGEAELVLPENLPKNSPVDITFKLNEEGRLEIKAIEAVEKREISTSIETSSVIKGKDLEEAKERNKNIEVS” as the sequence, how does the protein production read?
The protein production was “failed”.

For “MNENAPTHKSSHKVKTHTPVSGYHIEDLRTYPTEKLLEIANKLKVENPQEFKRQDLMFEILKTQVTQGGYILFTGILEIMPDGYGFLRGFDGSFSDGHNDTYVSPSQIRRFALRNGDIVTGQVRSPKDQEKYYALLKIEAINYSPSDEIRNRPLFDNLTPLFPDEQIKLEYEPTKVTGRMLDLFSPVGKGQRALIVAPPRTGKTELMKELAQGITSNHPEVELIILLVDERPEEVTDMQRSVKGQVFSSTFDLPANNHIRIAELVLERAKRRVEMGKDVVVLLDSITRLARAYNAVTPSSGKVLSGGVDANALHRPKRFFGAARNIEEGGSLTIIATALIETGSRMDEVIFEEFKGTGNSEIVLARNIADRRIYPAFDILKSGTRKDNILLGKDRLTKVWVLRNVMQQMDDIEALSFVYSKMQQTKDNEEFLNLMNEK”, which protein production is on record?
The protein production was “failed”.

For “MNENHKELISIGLTVSIVIFSLYIVHKFIPSMIWAAIIVIATYPLYTRWRKLFGNKHNTSAFLFTTLMGLLFLIPLSWLIGILIKESQLFINFLQHINKEGGAAPEFFKNIPLVGDDLIQYWDVNIGKPGNIKEFLSNLHVTLTPTSYYIKQIGVNLAHRSFQVGFTLLTLFFFYRDGDKLLLQIQHIGEYCLGDRWFRYSDRLPSALRGTVNGTIVVGIGVGILMGVCYALVGFPAPTLTGFITALAAMIPFVVPVVFIIVALILLSVGSLIGGIIVLVWGTLVMFVADHFVKPVLIGGAIQLPFLAVLFGILGGVETLGLLGLFLGPMVMVLFVTLWQEPQGHKKSSG”, which protein production is on record?
Its protein production is “failed”.

For “MNERRKAELVLLGATFIWGSTFPVMKIGVEDFPPITFIALRFGIASFVLFLALRKHIRKDALFPGLILGFTLFLGHGFQIVGLKYTTPSNSAFITSLYVVFTPFIAFLFFRKGLKMFDAFSLSLAVIGLYLISNAELRLNYGDALTVVAALSFAFQIVLVEYFGNLGVGLAFWQIFWNFILSTVYAGIFEGISLPSDPKVLGGIIYTGIFATALSFTLQVKYQPKVESYKAAIIYSSEPIFAHLLALAFLNDRLPPKGYLGAFLILLAVWLELYQERKNY”, which protein production is on record?
Its protein production is “failed”.

For “MNESERKIVEEFQKETGINFKNEELLFRALCHSSYANEQNQAGRKDVESNEKLEFLGDAVLELFVCEILYKKYPEAEVGDLARVKSAAASEEVLAMVSRKMNLGKFLFLGKGEEKTGGRDRDSILADAFEALLAAIYLDQGYEKIKELFEQEFEFYIEKIMKGEMLFDYKTALQEIVQSEHKVPPEYILVRTEKNDGDRIFVVEVRVNGKTIATGKGRTKKEAEKEAARIAYEKLLKERS”, which protein production is on record?
Its protein production is “not failed”.

For “MNFAGKHVGFGLTGSHCTYHEVLPQMERLVELGAKVTPFVTHTVQTTDTKFGESSEWINKIKQITEEPIVDSMVKAEPFGPKTPLDCMVIAPMTGNSTSKFANAMTDSPVLMGAKATLRNGKPVVVGISTNDALGLNGINIMRLMATKNIYFIPFGQDNPQVKPNSLVARMEALPETIEAALRGQQYQPVLIEKFRD”, which protein production is on record?
Its protein production is “not failed”.

For “MNFLSQRYTGKSLHPDETKCYKNFTQTAQKLTHRLAESINHYVNHIDCVINTNLYNRLLAEKKESNHMIYKERETWLEAILNTLPDHVFILDESGRYIESFGGTHHSKTFNAERYIGLQLSDVLSPTKADELMGFIFDVMQDNETKVVKYNLSLHDHLLLPIEELEALENPEEMWFEAIIKPVNAPENANKLVIWSVRDITKTHLLEQRLKQLSETDALTGLLNRRAFISNLDNAIIQHTKRSQTLSCLMIDIDHFKDINDSVGHFSGDHVITRIAHVCQGVIRGSDFIGRLGGEEFAVILTDTNAIQAYEVAERIRQAIQATICHVDDVEITTTVSIGVAELNSQQSNAKELLIEADKAMYYSKHSGRNQVTLAYENLPDLKLYQAGHLKIQRVS”, which protein production is on record?
The protein production was “failed”.

Which protein production does the source give for “MNFNRFTQRAKKAIDLAFESAKSLGHNIVGSEHILLGLLREEEGIAAKVLSKVGFTEAYLEGKIVDMEGKGEEISEDIVLSPRSKQILELSGMFANKLKTNYIGTEHILLAIIQEGEGIANKILNYAGVNDRTLAQLTIDMMG” here?
Its protein production is “not failed”.

Which protein production does the source give for “MNFQENLAALDLEYLWHPCSQMQEHQNFPIIPIKKAQGIYLYDFNDNAYMDLISSWWVNLFGHNNAYISQQLKNQIDDLEHVLLASFSHKPIITLSQRLCQLTHMDKCFYADNGSSCVEIALKMSYHAHFLKNQTRRKKLFLSLSNSYHGETLGALSVGDVKLYKDTYTPLLLKNLTTPVPKNDHEIENSLNALKRLLDKHSEEICAFIAEPLLQCAGNMHIYSARYLKQAVLLCKQKNIHIIFDEIATGFGRTGSMFAYEQCEIKPDFLCLSKGISGGYLPLSALLTHNEIYNQFYAPYEENKAFLHSHSYTGNALACACANATLDIFEKENVIEKNKALSGFIFNTLQNALKPLMEQQVVSDLRHLGMVFAFEVFIQTKERLSLAVFKKTLKKGLLLRPLNNTIYLMPPYIITHEEVKKAVAGLVEILDELRKG” here?
The protein production was “failed”.

For “MNFSTSFWQGFRALVPLWLGTVPFALAYAVTARAAGLSVGDTCLMSLTTFAGASQFAAAGLFGAHAGGLSIVLTTFLLNARHLLYGLSLARELRLTLPQRVVAAQFLTDEAYGVAVVSGARLPGGLTFAFLLGAELSLYLSWNVSTLLGALAGSVLPPPEQLGVGVVFPLAFLGLLVPLVVDRLSLLVALAAGLGGWALSRVLPGGLVILLAGVGGALLGAALLTRREQRAGVRA”, which protein production is on record?
The protein production was “failed”.

For “MNGFVQWMEVKLMPIANKFGSQRHMTAIRKGLIATMPLTIVGSFFTIFQNIPIEAYTKLIEPYQAILDIPSRYTMGLLALYATFGIASSLAKSYKLDSLTCGILALMAFLVTAAPPTRVFEDVDNVITAGRYINLANLGSASLFGAIVTALLSVEIYRFFIEKDIMIKMPDGVPPEVSNSFIALIPGAVILLLFWVIRHVIGFDLNGFLSTLLMPLKGILAGNSLFGGLLTVFLICFFWVLGIHGPAIMGPVIRPFWDMSIAENLEAFTNGANVHQLPNIFTEQFLQWFIWIGGAGTTLSLVVLMMFSKSTYLKSLGRLSFLPGLFNINEPVIFGTPIVMNPILGIPFIVAPLITTTLSYFLTVANIIPMMAARLAFAIPAPIAAWMSTNWSFSAAVLVIVNFLITMAIYYPFFKVYEKQQLDKEAEELAAEQAAKN”, which protein production is on record?
Its protein production is “failed”.

For “MNGGSSIKVLGLVGSPKVDGNTAKMVDAILEGAAENGAETVIYNLASLDIKGCDACHRCQETGCCAIDDDMQELYRQIEEADAVVLGSPVYMWQMTAQTKLLIDRMTAFLKPNFSSRLDHKKLILVFTQGIPDRDAFNSYFEYTAGVLYYLGFDVLETIVAAGTDNLEVAFRPRLLEKSRELGKLISASNPVSPRLEHHHHHH”, which protein production is on record?
Its protein production is “failed”.

For “MNGGTFTPGKEKDRAGIYFNFKTTAEERVSIGDRGTVALPVVMSWGEPKTFVSISSIEDLNKKVGLNIDDPSLLLFREAKKNAQTVLLYRLNTGAPAKAQIGETLSVTAKYGGEKGNDISIRISENVLDSKKFDVTTFVGTDEADRQTVKTAEELTANAYVAFQGEGALELTAGTKLSGGENGTASVADYTAFLDAAETEYFNTIALPVADNEQLKATFAAFIKRLRDKQGQKVQGVVADYAGDYEGIINVTGGVVLEDGTEITPEKATAWVAGASAGATFNQSLTFVEYEGAVDVLNRLDEDQVIERLKKGEFLFTFDARDQSVSVEKDINSLTSFTADKNKKFSKNKIIRVLDGVNNDLTRELKALIKARKASGSDIPASDDGLQYVKTLIIQYMTALQEAGGITGFDSESDIAITLNEDRDGFLIDLAVQPVDAAEKFYFNVEVK”, which protein production is on record?
Its protein production is “failed”.

With “MNGYVYLVGAGPGDEGLITKKAIECLKRADIVLYDRLLNPFFLSYTKQTCELMYCGKMPKNHIMRQEMINAHLLQFAQEGKIVVRLKGGDPSIFGRVGEEAETLAAANIPYEIVPGITSSTAASSYAGIPLTHRNYSNSVTLLTGHAKGSLTDHGKYNSSHNSDTIAYYMGIKNLPTICKNLRQAGKKEDTPVAVIEWGTTGKQRVVTGTLSTIVSIVKNENISNPSMTIVGDVVSLRDQIAWKEHKPLHGKKVLFTSATNKTSVMKQKLQEAGAEIYQIPTFKKEEYTLTLEQIIEIFNVNRLVFCSAESVEILMQSCSKYKKDIRSLQAELQHMNVATQEKLMQYGLLSKEAKFSSDTTVYLGRNINRIAFIQEKIGAGSYMMTHKYTIDHRFDEVHSRMLSEFLWDSIVFEGRASIDTFLAEVKRLGFLDIVTLPFSYTDVPTLRYANKVGFHNIDHQLQETLMQKDMVRQ” as the sequence, how does the protein production read?
The protein production was “failed”.
